From the supplement of paper PMC12855868

B1: library; numbered along this chain (parent)
chain: MAAAGGARLLRAASAVLGGPAGRWLHHAGSRAGSSGLLRNRGPGGSAEASRSLSVSARARSSSEDKITVHFINRDGETLTTKGKVGDSLLDVVVENNLDIDGFGACEGTLACSTCHLIFEDHIYEKLDAITDEENDMLDLAYGLTDRSRLGCQICLTKSMDNMTVRVPETVADARQSIDVGKTS

Variants of: B1
Assay: scaled log2 fold change in cell abundance, elesclomol vs control (0 = silent mean, 1 = nonsense mean) (scaled log2 ratio); higher = higher viability under elesclomol (loss of FDX1 cuproptosis function)
Conditions: glucose 10 mM
Procedure: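 Deep mutational scan of full-length human FDX1: a pooled saturation-mutagenesis ORF library (every residue 2-184 mutated to all 19 amino acids plus stop, and silent codons where available) was expressed by lentivirus in FDX1-knockout ABC1 (14 days) or HEK293T (11 days) cells grown with elesclomol (ES) or DMSO control. Variant abundance came from ORF sequencing. The log2 fold change (ES vs control, mean of duplicates) was centred on the silent-variant mean (0) and scaled to the nonsense-variant mean (1). Higher values mean greater viability under ES, i.e. loss of FDX1 function in cuproptosis.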

[1] = with ABC1 FDX1 KO, elesclomol 5 nM, 14 days
[2] = with HEK293T FDX1 KO, elesclomol 40 nM, 11 days
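Further: variant abundance is its share of total variant reads in each endpoint sample, from next-generation sequencing of the integrated ORF PCR-amplified out of genomic DNA.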

Variant | scaled log2 fold change [1] | scaled log2 fold change [2]
A21H | -0.455 | -0.00969
A21Q | -0.931 | 0.318
A21V | 0.197 | 
A21Y | -0.187 | 
A21E | -0.0483 | -0.444
A21N | -0.1 | -0.618
A21M | -0.216 | -0.139
A21S | 0.463 | -0.189
A21K | -0.827 | 
A21F | -0.268 | 0.113
A21L | 0.235 | 0.118
A21I | 0.0825 | 0.0632
A21R | -0.644 | -0.0217
A21G | 0.106 | -0.283
A21C | -0.145 | -0.0664
A21T | -0.223 | -0.058
A21D | 0.168 | -0.0523
A21P | 0.0803 | 
L17P | -0.107 | 
L17S | 0.386 | 0.458
L17Y | -0.147 | 0.613
L17W | 0.321 | -0.126
L17F | -0.361 | 0.252
L17N | 0.306 | 
L17I | -0.552 | -0.833
L17A | -0.194 | 

Variant | scaled log2 fold change [1] | scaled log2 fold change [2]
L17Q | -0.0277 | -0.517
L17D | 0.342 | 0.653
L17R | -0.051 | 0.603
L17K | -0.392 | -0.386
L17G | 0.217 | -0.178
L17E | 0.227 | 
L17H | -0.27 | -0.167
L17V | -0.232 | 
L17M | 0.05 | 0.0514
L17T | 0.262 | -0.223
L17C | 0.0553 | 0.966
L10P | -0.379 | 
L10M | 0.337 | 0.282
L10V | 0.189 | -0.208
L10K | -0.11 | -0.14
L10S | 0.48 | 1.51
L10W | -0.304 | 0.734
L10R | 0.663 | 
L10N | 0.128 | -0.352
L10Q | 0.168 | 0.352
L10T | 0.0611 | 
L10Y | 0.409 | 0.302
R11C | 0.0344 | -0.198
R11A | 0.289 | -0.22
R11E | -0.0252 | -0.275
R11H | 0.0541 | -0.696

Variant | scaled log2 fold change [1] | scaled log2 fold change [2]
R11P | 0.346 | 
R11V | 0.177 | -0.49
R11T | 0.0343 | -0.658
R11W | 0.0433 | 0.0594
R11N | 0.137 | 0.131
R11D | 0.509 | 
R11I | 0.175 | -0.673
R11L | 0.0826 | 0.444
R11S | 0.406 | -0.404
R11K | 0.0892 | 1.03
R11F | 0.139 | -0.474
R11Y | 0.189 | 0.793
R11G | 0.36 | -0.443
R11Q | 0.24 | 0.0461
R11M | -0.24 | 0.88
V16A | -0.668 | 
V16K | 0.121 | 0.118
V16W | -0.405 | 
V16L | 0.316 | -0.316
V16S | 0.228 | -0.117
V16Y | 0.461 | 0.705
V16T | 0.119 | -0.636
V16G | -0.0956 | 0.0318
V16C | 0.174 | 0.501
V16F | -0.9 | 0.654
V16N | -0.645 | -0.143

Variant | scaled log2 fold change [1] | scaled log2 fold change [2]
V16E | -0.716 | 
V16Q | 0.575 | 
V16I | -0.31 | 
V16P | -0.0976 | 0.175
V16R | -0.0133 | 
V16M | 0.215 | 0.406
V16D | 0.0655 | -0.0447
P20S | -0.324 | 
P20W | -0.19 | -0.657
P20M | -0.56 | 
P20L | 0.585 | -0.772
P20G | 0.37 | 
P20C | 0.163 | -0.287
P20K | 0.251 | 
P20I | 0.419 | 0.171
P20Q | -0.5 | 1.13
P20H | -0.216 | 0.0304
P20N | -0.129 | 
P20F | -0.201 | 
P20E | 0.162 | 1.08
P20Y | 0.0978 | 0.987
P20T | 0.221 | 
P20D | -0.0903 | 
P20A | -0.601 | 0.0404
G22F | 0.555 | 
G22C | -0.919 | 

Variant | scaled log2 fold change [1] | scaled log2 fold change [2]
G22I | 0.314 | 0.699
G22A | 0.412 | 
G22V | 0.245 | 
G22K | 0.385 | 0.488
G22R | -0.188 | 
G22T | -0.511 | -0.29
G22P | 0.294 | 
G22H | 0.331 | 0.022
G22L | -0.306 | 
G22M | 0.793 | 
G22E | -0.42 | -0.0922
G22Y | 0.703 | 0.208
S14W | -0.0995 | -0.0707
S14F | -0.657 | 
S14G | 0.603 | 
S14K | -0.193 | 0.475
S14A | 0.422 | 0.495
S14R | 0.602 | 
S14L | -0.903 | 0.688
S14M | 0.348 | 0.298
S14Y | 0.283 | 0.523
S14P | 0.707 | 
S14T | -0.472 | 
S14Q | -0.469 | 
S14C | 0.43 | -0.264
S14H | -0.573 | 

Variant | scaled log2 fold change [1] | scaled log2 fold change [2]
S14D | 0.306 | 
S14E | 0.366 | 0.442
S14V | 0.113 | 
S14I | -0.891 | -0.397
A12M | -0.178 | -0.222
A12Q | 0.144 | 0.91
A12F | 0.00609 | -0.148
A12D | 0.231 | 0.265
A12T | -0.00479 | -0.247
A12R | -0.455 | 0.571
A12H | 0.526 | 0.197
A12I | 0.306 | -0.67
A12V | 0.373 | 
A12Y | 0.376 | 0.577
A12G | 0.259 | -0.297
A12K | 0.0242 | -0.213
A12N | -0.0628 | 0.996
A12P | -0.154 | -0.436
A12C | 0.0882 | 0.2
A12E | 0.118 | 0.751
A12S | 0.0823 | 1.03
A12L | 0.128 | -0.0278
A12W | 0.171 | 
R23I | 0.309 | 
R23Y | -0.603 | 
R23Q | 0.00392 | 

Variant | scaled log2 fold change [1] | scaled log2 fold change [2]
R23N | 0.598 | -0.335
R23C | 0.413 | 0.458
R23S | -0.477 | 
R23T | -0.164 | -0.141
R23W | 0.348 | 0.553
R23E | 0.00775 | 
R23K | 0.498 | 
R23M | 0.474 | -0.139
R23D | 0.199 | 
R23P | -0.138 | 0.465
A15Y | -0.822 | 
A15V | 0.02 | 
A15S | 0.137 | 0.0336
A15D | 0.405 | 0.431
A15K | -0.22 | -0.495
A15L | -0.153 | -0.301
A15C | 0.107 | 0.017
A15T | 0.322 | -0.179
A15N | -0.0399 | -0.856
A15F | -0.0557 | -0.87
A15G | -0.419 | 0.437
A15I | -0.367 | -0.0209
A15H | 0.0941 | -0.215
A15P | 0.172 | 0.337
A15W | 0.0842 | -0.229
A15E | 0.311 | -0.231

Variant | scaled log2 fold change [1] | scaled log2 fold change [2]
A15M | -0.0208 | 0.445
A15Q | 0.208 | 0.886
A13H | 0.0738 | -1.05
A13Y | -0.585 | 0.259
A13R | -0.131 | 0.251
A13Q | 0.0333 | 0.653
A13M | -0.148 | 0.232
A13P | 0.188 | 
A13K | 0.137 | -0.0857
A13L | 0.256 | 0.56
A13D | 0.543 | -0.132
A13N | 0.0507 | -0.531
A13I | -0.0121 | 0.147
A13G | 0.519 | 
A13T | 0.0105 | -0.0204
A13W | 0.54 | -0.436
A13C | 0.224 | 0.158
A13S | 0.157 | 0.0322
A13E | 0.269 | 0.026
A13V | 0.347 | 
A13F | 0.0208 | 1.34
G19T | 0.117 | 0.837
G19L | -0.367 | 0.0638
G19I | 0.0203 | -0.0307
G19V | -0.0119 | 1.01
G19W | 0.277 | -0.266

Variant | scaled log2 fold change [1] | scaled log2 fold change [2]
G19E | 0.246 | -0.028
G19Y | 0.187 | -0.867
G19C | -0.0683 | -0.489
G19F | 0.0719 | 0.185
G19Q | 0.00839 | -0.000362
G19P | 0.54 | 
G19H | 0.674 | 
G19S | 0.267 | 0.0205
G19K | -0.0528 | -0.256
G19M | -0.0059 | -0.191
G19N | -0.0111 | 0.0883
G19D | 0.233 | 0.874
G19R | 0.483 | 1.5
G19A | -0.167 | -0.0193
W24K | -0.318 | -0.743
W24C | 0.00637 | -0.0787
W24N | -0.222 | 0.318
W24F | 0.286 | 0.448
W24E | 0.458 | -0.438
W24H | 0.42 | -0.545
W24M | 0.24 | -0.653
W24L | 0.45 | 
W24Q | -0.175 | 0.364
W24I | -0.0623 | 
G18A | -0.164 | 0.946
G18F | 0.00932 | 0.79

Variant | scaled log2 fold change [1] | scaled log2 fold change [2]
G18D | -0.233 | 0.58
G18V | 0.494 | -0.0846
G18S | 0.392 | 0.921
G18Q | -0.43 | 0.977
G18K | 0.322 | 0.179
G18C | 0.14 | 0.923
G18T | 0.225 | 0.0755
G18H | 0.0847 | -0.242
G18R | 0.241 | -0.618
G18P | 0.0386 | 
G18M | 0.0948 | 0.156
G18E | -0.165 | -0.152
G18N | 0.408 | 0.649
G18L | -0.655 | 0.123
G18W | -0.00826 | -0.224
G18I | 0.0859 | -0.0341
G18Y | 0.0736 | 0.324
